Test results published in a protein production outcome set (Wang et al. 2014).

Test: label from the status in PepcDB records

| Sequence | protein production |
| --- | --- |
| MKITWFGHACFALEMEGKTIVTDPFDESVGYPIPNVTADVVTESHQHFDHNAHHLVKGNFRVIDRPGAYTVNGVKIKGVETFHDPSHGRERGKNIVFVFEGEGIKVCHLGDLGHVLTPAQVEEIGEIDVLLVPVGGTYTIGPKEAKEVADLLNAKVIIPMHYKTKYLKFNLLPVDDFLKLFDSYERVGNILELFEKPKERKVVVMEVQ | not failed |
| MAARTLPDRFIARAPVPADAPAIARLIAACQEADGDEPDASAEEVLRDWEGLDLGQEAVLVVAPDGEAAAYADVLNRRYVQLSVYGYVHPRFRGMGLGTWLVQWGEEWIQDRMHLAPAEAQVTVQHYIRASSTSALRLMEQHGYRPVRDIWVMAITLDQPPPAPEWPEGITARTFVPGLDERATYEAVEEAFGDIWGRPPSTFERWLSMTQSERKDPELWLLAVETDSGHIVGTCLGQETAGKGWIGSVGVRRPWRGRGIALALLQEVFGVYYRRGVREVELSVDAESRTGAPRLYRRAGMHVKHRYVLHRKEIRPGIDLSTTAAHS | not failed |
| MKLNRAIGVIDSGVGGLTVAKELIRQLPKERIIYLGDTARCPYGPRSREEVRQFTWEMTEHLLDLNIKMLVIACNTATAVVLEEMQKQLPIPVVGVIHPGSRTALKVTNTYHVGIIGTIGTVKSGAYEEALKSINNRVMVESLACPPFVELVESGNFESEMAYEVVRETLQPLKNTDIDTLILGCTHYPILGPVIKQVMGDKVQLISSGDETAREVSTILYHSKMLNEGEEQSDHLFLTTGKIGLFKEIASKWFGQPIENVKHIHLEKE | failed |
| MACNTCKMCESADKKLESFVASKDVETAFHRTEDQKVKCGFGLQGVCCRLCSNGPCRVTPKSPRGICGADADTIVARNFLRAVASGAACYLHVVENTAKNLKNVGITKGVVKGEKTLNQLAEMFGIESDEKYDKCIKVADKVINDLYKSRDDKMELVEKIAYAPRVKKWKELGIMPGGAKSEVFDAIVKSSTNLNSDPVDMLVNCLNLGISTGLYGLTLTNLLNDVMLGEPVIRMAPVGFNVIDPDYINIMITGHQHSTFANFQDRLKDEDVIKLAQSVGAKGFKLVGCTCVGQDLQLRGEHYQEVFAGHAGNNFTSEAVLSTGAIDIVLSEFNCTIPGLEPIADKYKVKMVCLDDVAKKANAEYIGLDRSKLDELSNTLIEKALESYKERRGSIEIDIPKDHGFEQSLTGVSEKNLKAFLGDSWKPLINLIAEGKIKGVAAVVGCSNMTAGGHDVNTVELTKELIKKDIIVLSAGCSTGGLENVGLMSPGAEELAGENLKEVCKTLGIPPVLNFGPCLAIGRLEIVATELAAELGIDLPQLPLVLSAPQWLEEQALADGAFGLALGLPLHLALPPFITGGKLVTEVLTEKLKDLTGGHVIVNPDPKSSANQLEEIIIDRRKNLGLKDVECNA | failed |
| MDLYLDPSILIILIVFGFVAAFIDSVVGGGGLIALPALLFTGLNPASAVATNKLASTMGSATSNIVFYRSGNLNLKSAFKLVPLTFIGSIIGAWTVHLMNPEVLKPLMLIMLGAVAIYTIFKKDWGSISTHKKLSGRHVIIFTFFVFAIGFYDGFLGPGTGSFLMFSLLFIGYDFLKAAGNAKLLNLGSNVGALLMFMYVGQVNYAYGFIMGIAQIAGGIVGSKFAIKKGSGYVRALFITVTCLLLAKNLYDYIQ | failed |
| MSDAQDSRVGSMFGPYHLKRLLGRGGMGEVYEAEHTVKEWTVAVKLMTAEFSKDPVFRERMKREARIAGRLQEPHVVPIHDYGEVDGQMFLEMRLVEGTDLDSVLKRFGPLTPPRAVAIITQIASALDAAHADGVMHRDVKPQNILITRDDFAYLVDFGIASATTDEKLTQLGTAVGTWKYMAPERFSNDEVTYRADIYALACVLHECLTGAPPYRADSAGTLVSSHLMGPIPQPSAIRPGIPKAFDAVVARGMAKKPEDRYASAGDLALAAHEALSDPDQDHAADILRRSQESTLPGTAAVTAQPPTMPTVTPPPIQAAPTGQPSWAPNSGPMPASGPTPTPQYYQGGGWGAPPSGGPSPWAQTPRKTNPWPFVAGAAAVVLVLVLGAIGIWIAIRPKPVQPPQPVAEERLSALLLNSSEVNAVMGSSSMQPGKPITSMDSSPVTVSLPDCQGALYTSQDPVYAGTGYTAINGLISSEPGDNYEHWVNQAVVAFPTADKARAFVQTSADKWKNCAGKTVTVTNKAKTYRWTFADVKGSPPTITVIDTQEGAEGWECQRAMSVANNVVVDVNACGYQITNQAGQIAAKIVDKVNKE | failed |
| MRRRDARPQGTGTAGPTGARHGEDADGTPRHMNAPKGLPLWLKIVTGVVSVALVAGVAFAAFWFIRLQTNITKAPLSAGETRNAGDPLVDDKTDRLQILILGSDTRDGKNAEYGSTEDSTGYGHSDVMMLLDISADNKRVNVLSFPRDLLVDVPQCTDRTNNQTFPARSGVMINEAMAEAGIGCAVDTVNQLTGLEIDHFMMADFNAVKELSHAVGGVNVCVSDPVFDPDSRLRLAKGDSLVEGEQALAFLRTRHAFGDGGDLGRIKGQQAFLSSLTRKLKDEGTLGNPQRLLQIADVVTQNLTVDEGLASVPSLLTIGGRLKDIDVSKVAFVAVPTQAAAADINRLELIEPQASQLFAALRADLDLTTPGATAPPAPSESPAPQPTATTPPAPAYDKAIQPVAVANGSGVATRAQELMTVLTGNGFAQTVSYLANPVDQTVLYYGPGFADVAADVATLFGIPAAQVQEAPGVAGVQLYVGTDFSSGTAYGAASVPSDVVNQTANDAVCQQVNPLYIDQQ | failed |
| MITSIARQSIILKCLRQKSVLVSNYELYYTAGLAKKCFGIAVDADMEPKQLLEELQKHIDKVSPADEQEKYLIHLLGNYEPDDTHDEQTVELFHMGETEEHIWQVSIT | not failed |
| MALEIKILDYGDIELESSFLVLGRDCGRTRRVLTLGFLILGGKYPVVVDTGYRSNQIMETLGMRGLQYHEHMIENQLARHGVRMGDVRFVCHTHLHIDHAGKDDLFPMNTTVVLNRKELEYSVSGLMHPQYPAPDIKHLIDRLHTKSALRFLDLEITGPIELMPGVYCDAANAHTEGSMNIIVETADGIATICGDVIYDFNDQIVTPFNEIHDWEPRTTGNHGTSKRAEKASIKKLLSNSRYLLPVHDRPAKIEGGMVVGRLHDQVPGPIVQSLPPRNWFPA | failed |
| MATLTEDDVLEQLDAQDNLFSFMKTAHSILLQGIRQFLPSLFVDNDEEIVEYAVKPLLAQSGPLDDIDVALRLIYALGKMDKWLYADITHFSQYWHYLNEQDETPGFADDITWDFISNVNSITRNATLYDALKAMKFADFAVWSEARFSGMVKTALTLAVTTTLKELTP | not failed |
| MKYIIIGLGNYGHVLAEELSTLGHEVIGADLDEGRVDSIKDKIATAFVIDATDEQSLSVLPLNSVDMVIVAIGENFGASIRVVAMLKQKQVKHIYARAIDGVHKAVLEAFGLEKILTPEEDAARSLVQLLDFGTKMETFRVDSEYYVVKFNVPEKFVGYFVNELNLDEEFNLKLIGLKRSNTIKNCLGISLVEHKVVNELPEDAKIRPDDVLVCYGKYSDFQKLWKALLEHHHHHH | not failed |
| MIYFTGDTHFADPRVLRIDRRPFPDMASHDVTLIRNWNEIVDAQDDIWHLGDFMSFRGGDCDQLLSMLNGRKHLIIGNNDPSTTTEATGWASVQHYSEMTLDDHLLILCHYPFRTWNKMGRKSINLHGHSHGRLKPLPRQYDVGVDAQRLRPVSLQTLLSTKPES | failed |
| MPTLLMITPENLEIKRFRAYQLNNFMQLTMPYLAGFVPKEYDIRLLDEHTEPIIFEKFDLVAITVNTPNAPYAYAISKKFRELGSWVALGGPHVTLNPEEAALHCDTIFIGEAEETWPQFLNDFLCKKAQKVYTSSRAPSLAGLPIPRRDLIVGNRFISGAVFASRGCPHNCSYCSLKKIYHNTFRTRPVDEVIKDIASMPNKYFVFWDDNFFADPSYTKALLKDLAKLNKKWAAQVTAHSCEDEELLRLAKSAGCLYLFLGLESFSEQGLKDANKSFNKIEQYGKIADKLHRHGISIQAGIVFGFDSDTPDVFETTLKACNDIGIDGVTASILTPFPGTGIYDQYKNEGRLLDVGWNYYNGKTRVAYVPKQMSPEELLNGYNEFRRKFYSWKSIIKRICKSRVNIFYNLAMNYGYRQAYRNFAKLDIGDSKGMNIFEQLI | failed |
| MIEFLLNYYFMPFNLSVIALLILSMAETIGIYIGLRPSTFLKKFLPRWLSNSPLVNVKFSKVLILVFFLINFSFAGYFLQLCVFAQQQFFISPFYLIIPALIIGIFFTVFMIHCLDQVIKPQVEHQYSSLLGRLATISSGSARPGFSAQARVRDEFGQLHYVQVEPEFGELELQSQVILIRFRQTHYIAKRISASNHLFTPE | failed |
